Reference: article PMC5925078

Key:
[1] = target: TNFR2 variant in which the intracellular binding site for TRAF2 has been substituted by YFP, P20333; experiment: cellular binding study with GpL (luciferase) fusion protein; competition; HEK293 cells transiently expressing TNFR1 or TNFR2 (YFP deletion mutants); preincubation with purified sTNF or PGRN at 37°C; 10-20 ng/ml GpL-TNF; EV-transfected cells as non-specific binding
[2] = target: cytosolic deletion mutant of TNFR1 in which the death domain has been replaced by YFP, P19438; experiment: as above

- specific binding of 20 ng/ml GpL-TNF, fold over the unspecific background (the pair that is blocked) [1]: > 2400 fold
B1: GpL-Flag-TNC-TNF (ligand)
chain: ACGCAAAPDIKDLLSRLEELEGLVSSLREQSDKPVAHVVANPQAEGQLQWLNRRANALLANGVELRDNQLVVPSEGLYLIYSQVLFKGQGCPSTHVLLTHTISRIAVSYQTKVNLLSAIKSPCQRETPEGAEAKPWYEPIYLGGVFQLEKGDRLSAEINRPDYLDFAESGQVYFGIIAL
- specific binding of 20 ng/ml GpL-TNF, fold over the unspecific background (the pair that is blocked) [2]: > 800 fold
